This data set relates to Modified p53 (human p53 engineered to contain the HIV-1 protease cleavage site VSFNFPQITL upstream o).

HIV-1 protease: the “SDS-PAGE migration of purified p53 fusion protein after co-expression with HIV-1 protease (cleavage)” value is “The mutagenized p53 migrated more quickly than the wild-type protein (as did p53Δ30), but only after coexpression with HIV-1 protease”.

The values are drawn from patent US6429298.
